Consider 14 molecules from patent publication US20210284724A1 (I MAB BIOPHARMA US, published 2021).

The target in experiment [1] is T1, human CXCL13 (human, UniProt O43927 23-109).
T1 construct: also called huCXCL13; rhCXCL13
T1 sequence (looked up): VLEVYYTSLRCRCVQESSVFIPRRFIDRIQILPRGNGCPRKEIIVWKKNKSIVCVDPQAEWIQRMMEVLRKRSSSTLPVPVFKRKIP
The experiment can be described thus: SPR Biacore, off-rate ranking of Fabs.

For experiment [2], the target named is T1, human CXCL13. The experiment can be described thus: SPR Biacore 8K, Fab over immobilised CXCL13. As for the experimental part:
Among all humanized Fab samples, 71F4A3-VH2VL1, 71F4A3-VH1VL1 (Hz71F4), 71F4A3-VH1VL2, 71F4A3-VH3VL1, 411A11E9-VH1VL4, 411A11E9-VH3VL4, 411A11E9-VH2VL4, 411A11E9-VH3VL2, 411A11E9-VH1VL2, 21H12D9-VH1VL1, 21H12D9-VH2VL2, 21H12D9-VH3VL3, 21H12D9-VH1VL2, 64C10G1-VH1VL3, 64C10G1-VH1VL4, 64C10G1-VH1VL1, 64C10G1-VH1VL2 were selected to test affinity by Biacore 8K. 10 mM HEPES, 150 mM NaCl, 3 mM EDTA, 0.05% Tween-20, pH 7.4 served as running buffer and 10 mM glycine-HCl, pH2.0 served as regeneration buffer. CXCL13 protein were immobilized on Sensor Chip CM5 using amine coupling method (immobilization level ˜250RU). The serial concentrations of Fab (0-20 nM) were injected over immobilized CXCL13 at the flow rate of 30 μl/min. The dissociation phases were 600s.

B1: 21H12D9-VH2VL2 (Fab, V domains shown)
VH: QVQLVQSGAEVVKPGASVKVSCKASGYTFTDYYMNWVRQAPGQGLEWMGVINPNNGGTTYKEKFKGRVTMTVDTSISTAYMELSRLRSDDTAVYYCARDDYDAGYWGQGTLVTVSS
VL: DIQMTQSPSSVSTSVGDRVTITCKASQNVDTAVAWYQQKPGKAPKLLIYSASHRYTGVPSRFSGSGSGTDFTLTISSLQPEDFATYYCQQYTDFPLTFGQGTRLEIK
notes: Humanized Fab, human gamma 1 and kappa constant domains; also called 21VH12D9-VH2VL2
For the molecule B1, in the experiment with human CXCL13 [1], the dissociation constant Kd was 1.94 nM, the off-rate (koff) was found to be 0.000802 s⁻¹ and the association rate constant (kon) was determined as 414000 M⁻¹ s⁻¹. In the experiment with human CXCL13 [2], binding was characterised by a dissociation constant (Kd) of 1.32 nM, the koff was 0.00195 s⁻¹ and the kon worked out at 1.48e+06 M⁻¹ s⁻¹.

B2: 21H12D9-VH4VL3 (Fab, V domains shown)
VH: QVQLVQSGAEVVKPGASVKMSCKASGYTFTDYYMNWVRQAPGQGLEWIGVINPNNGGTTYKEKFKGRATLTVDTSIGTAYMELSRLRSDDTAVYYCARDDYDAGYWGQGTLLTVSS
VL: DIQMTQSPSSVSTSVGDRVTITCKASQNVDTAVAWYQQKPGKAPKLLIYSASHRYTGVPSRFSGSGSGTDFTLTISSVQPEDFATYYCQQYTDFPLTFGQGTRLEIK
notes: Humanized Fab, human gamma 1 and kappa constant domains; also called 21VH12D9-VH4VL3
In the experiment with human CXCL13 [1], B2 came in with a Kd of 1.59 nM, an off-rate constant (koff) of 0.00116 s⁻¹ and an on-rate (kon) of 729000 M⁻¹ s⁻¹.

B3: 21H12D9-VH1VL2 (Fab, V domains shown)
VH: QVQLVQSGAEVKKPGASVKVSCKASGYTFTDYYMNWVRQAPGQGLEWMGVINPNNGGTTYKEKFKGRVTMTRDTSISTAYMELSRLRSDDTAVYYCARDDYDAGYWGQGTLVTVSS
VL: DIQMTQSPSSVSTSVGDRVTITCKASQNVDTAVAWYQQKPGKAPKLLIYSASHRYTGVPSRFSGSGSGTDFTLTISSLQPEDFATYYCQQYTDFPLTFGQGTRLEIK
notes: Humanized Fab, human gamma 1 and kappa constant domains; also called 21VH12D9-VH1VL2
Consider B3, for which, in the experiment with human CXCL13 [1], binding was put at a Kd of 1.99 nM, the koff amounted to 0.000757 s⁻¹ and the kon stood at 380000 M⁻¹ s⁻¹. In the experiment with human CXCL13 [2], this molecule gave a Kd of 1.19 nM, an off-rate (koff) of 0.00171 s⁻¹ and a kon of 1.44e+06 M⁻¹ s⁻¹.

B4: 21H12D9-VH3VL2 (Fab, V domains shown)
VH: QVQLVQSGAEVVKPGASVKVSCKASGYTFTDYYMNWVRQAPGQGLEWIGVINPNNGGTTYKEKFKGRATLTVDTSISTAYMELSRLRSDDTAVYYCARDDYDAGYWGQGTLVTVSS
VL: DIQMTQSPSSVSTSVGDRVTITCKASQNVDTAVAWYQQKPGKAPKLLIYSASHRYTGVPSRFSGSGSGTDFTLTISSLQPEDFATYYCQQYTDFPLTFGQGTRLEIK
notes: Humanized Fab, human gamma 1 and kappa constant domains; also called 21VH12D9-VH3VL2
B4: in the experiment with human CXCL13 [1], the dissociation constant (Kd) stood at 1.47 nM, the koff came to 0.00138 s⁻¹ and the association rate constant (kon) was determined as 940000 M⁻¹ s⁻¹.

B5: 21H12D9-VH3VL1 (Fab, V domains shown)
VH: QVQLVQSGAEVVKPGASVKVSCKASGYTFTDYYMNWVRQAPGQGLEWIGVINPNNGGTTYKEKFKGRATLTVDTSISTAYMELSRLRSDDTAVYYCARDDYDAGYWGQGTLVTVSS
VL: DIQMTQSPSSVSASVGDRVTITCKASQNVDTAVAWYQQKPGKAPKLLIYSASHRYTGVPSRFSGSGSGTDFTLTISSLQPEDFATYYCQQYTDFPLTFGQGTRLEIK
notes: Humanized Fab, human gamma 1 and kappa constant domains; also called 21VH12D9-VH3VL1
In the experiment with human CXCL13 [1], B5 showed a Kd of 1.76 nM, a koff of 0.00131 s⁻¹ and a kon of 744000 M⁻¹ s⁻¹.

B6: 21H12D9-VH3VL3 (Fab, V domains shown)
VH: QVQLVQSGAEVVKPGASVKVSCKASGYTFTDYYMNWVRQAPGQGLEWIGVINPNNGGTTYKEKFKGRATLTVDTSISTAYMELSRLRSDDTAVYYCARDDYDAGYWGQGTLVTVSS
VL: DIQMTQSPSSVSTSVGDRVTITCKASQNVDTAVAWYQQKPGKAPKLLIYSASHRYTGVPSRFSGSGSGTDFTLTISSVQPEDFATYYCQQYTDFPLTFGQGTRLEIK
notes: Humanized Fab, human gamma 1 and kappa constant domains; also called 21VH12D9-VH3VL3
Regarding B6, in the experiment with human CXCL13 [1], the affinity, expressed as Kd, was 1.47 nM; the koff was 0.00207 s⁻¹; the kon came to 1.41e+06 M⁻¹ s⁻¹. In the experiment with human CXCL13 [2], this molecule had a dissociation constant (Kd) of 1.22 nM, an off-rate constant (koff) of 0.00182 s⁻¹ and an on-rate (kon) of 1.49e+06 M⁻¹ s⁻¹.

B7: 21H12D9-VH4VL2 (Fab, V domains shown)
VH: QVQLVQSGAEVVKPGASVKMSCKASGYTFTDYYMNWVRQAPGQGLEWIGVINPNNGGTTYKEKFKGRATLTVDTSIGTAYMELSRLRSDDTAVYYCARDDYDAGYWGQGTLLTVSS
VL: DIQMTQSPSSVSTSVGDRVTITCKASQNVDTAVAWYQQKPGKAPKLLIYSASHRYTGVPSRFSGSGSGTDFTLTISSLQPEDFATYYCQQYTDFPLTFGQGTRLEIK
notes: Humanized Fab, human gamma 1 and kappa constant domains; also called 21VH12D9-VH4VL2
In the experiment with human CXCL13 [1], B7 showed a Kd of 1.54 nM, a dissociation rate constant (koff) of 0.00114 s⁻¹ and a kon of 742000 M⁻¹ s⁻¹.

B8: 21H12D9-VH1VL1 (Fab, V domains shown)
VH: QVQLVQSGAEVKKPGASVKVSCKASGYTFTDYYMNWVRQAPGQGLEWMGVINPNNGGTTYKEKFKGRVTMTRDTSISTAYMELSRLRSDDTAVYYCARDDYDAGYWGQGTLVTVSS
VL: DIQMTQSPSSVSASVGDRVTITCKASQNVDTAVAWYQQKPGKAPKLLIYSASHRYTGVPSRFSGSGSGTDFTLTISSLQPEDFATYYCQQYTDFPLTFGQGTRLEIK
notes: Humanized Fab, human gamma 1 and kappa constant domains; also called 21VH12D9-VH1VL1
For B8, in the experiment with human CXCL13 [1], the Kd is 1.33 nM, the koff was 0.00323 s⁻¹ and the kon is 2.42e+06 M⁻¹ s⁻¹. In the experiment with human CXCL13 [2], this molecule returned a Kd of 1.23 nM, a koff of 0.00203 s⁻¹ and an on-rate (kon) of 1.66e+06 M⁻¹ s⁻¹.

B9: 21H12D9-VH4VL1 (Fab, V domains shown)
VH: QVQLVQSGAEVVKPGASVKMSCKASGYTFTDYYMNWVRQAPGQGLEWIGVINPNNGGTTYKEKFKGRATLTVDTSIGTAYMELSRLRSDDTAVYYCARDDYDAGYWGQGTLLTVSS
VL: DIQMTQSPSSVSASVGDRVTITCKASQNVDTAVAWYQQKPGKAPKLLIYSASHRYTGVPSRFSGSGSGTDFTLTISSLQPEDFATYYCQQYTDFPLTFGQGTRLEIK
notes: Humanized Fab, human gamma 1 and kappa constant domains; also called 21VH12D9-VH4VL1
In the experiment with human CXCL13 [1], B9 returned a Kd of 1.73 nM, an off-rate (koff) of 0.00107 s⁻¹ and a kon of 618000 M⁻¹ s⁻¹.

B10: 411A11E9-VH1VL2 (Fab, V domains shown)
VH: EVQLVESGGGLVQPGGSLRLSCAASGFTFSDYYMAWVRQAPGKGLEWVASINYDGGDTYYRDSVKGRFTISRDNAKNSLYLQMNSLRAEDTAVYYCAREEDYDGSYVMDAWGQGTLVTVSS
VL: DIQMTQSPSSLSASVGDRVTITCKASQNINKELTWYQQKPGKAPKRLIYNTNILQTGVPSRFSGSGSGTEFTLTISSLQPEDFATYFCLQQSSLYTFGQGTKLEIK
notes: Humanized Fab, human gamma 1 and kappa constant domains
In the experiment with human CXCL13 [1], B10 returned a Kd of 14.5 nM, a dissociation rate constant (koff) of 0.00114 s⁻¹ and a kon of 78200 M⁻¹ s⁻¹. Further, in the experiment with human CXCL13 [2], the Kd was 2.83 nM, the off-rate (koff) stood at 0.00161 s⁻¹ and the kon is 570000 M⁻¹ s⁻¹.

B11: 411A11E9-VH1VL4 (Fab, V domains shown)
VH: EVQLVESGGGLVQPGGSLRLSCAASGFTFSDYYMAWVRQAPGKGLEWVASINYDGGDTYYRDSVKGRFTISRDNAKNSLYLQMNSLRAEDTAVYYCAREEDYDGSYVMDAWGQGTLVTVSS
VL: DIQMTQSPSSLSASVGDRVTITCKASQNINKELTWYQQKPGKAPKRLIYNTNILQTGIPSRFSGSGSGTEYTLTISSLQPEDFATYFCLQQSSLYTFGQGTKLEIK
notes: as for B10
In the experiment with human CXCL13 [1], B11 had a Kd of 1.82 nM, a koff of 0.00063 s⁻¹ and an on-rate constant (kon) of 346000 M⁻¹ s⁻¹. Further, in the experiment with human CXCL13 [2], the Kd is 0.844 nM, the koff came to 0.00157 s⁻¹ and the kon came to 1.86e+06 M⁻¹ s⁻¹.

B12: 411A11E9-VH3VL4 (Fab, V domains shown)
VH: EVQLVESGGGLVQPGGSLRLSCAVSGFTFSDYYMAWVRQAPGKGLEWVASINYDGGDTYYRDSVKGRFTISRDNAKNSLYLQMNSLRAEDTAVYYCATEEDYDGSYVMDAWGQGTLVTVSS
VL: DIQMTQSPSSLSASVGDRVTITCKASQNINKELTWYQQKPGKAPKRLIYNTNILQTGIPSRFSGSGSGTEYTLTISSLQPEDFATYFCLQQSSLYTFGQGTKLEIK
notes: as for B10
On to B12, for which, in the experiment with human CXCL13 [1], the affinity, expressed as Kd, was 0.498 nM; the off-rate (koff) came out at 0.00109 s⁻¹; the on-rate (kon) is 2.19e+06 M⁻¹ s⁻¹. Besides, in the experiment with human CXCL13 [2], the Kd worked out at 0.908 nM, the koff worked out at 0.000823 s⁻¹ and the kon turned out to be 906000 M⁻¹ s⁻¹.

B13: 411A11E9-VH3VL2 (Fab, V domains shown)
VH: EVQLVESGGGLVQPGGSLRLSCAVSGFTFSDYYMAWVRQAPGKGLEWVASINYDGGDTYYRDSVKGRFTISRDNAKNSLYLQMNSLRAEDTAVYYCATEEDYDGSYVMDAWGQGTLVTVSS
VL: DIQMTQSPSSLSASVGDRVTITCKASQNINKELTWYQQKPGKAPKRLIYNTNILQTGVPSRFSGSGSGTEFTLTISSLQPEDFATYFCLQQSSLYTFGQGTKLEIK
notes: as for B10
As for B13, in the experiment with human CXCL13 [1], the Kd was determined as 0.919 nM, the off-rate (koff) turned out to be 0.00163 s⁻¹ and the kon is 1.78e+06 M⁻¹ s⁻¹. In the experiment with human CXCL13 [2], this molecule had an equilibrium dissociation constant (Kd) of 1.2 nM, an off-rate (koff) of 0.00126 s⁻¹ and an on-rate constant (kon) of 1.05e+06 M⁻¹ s⁻¹.

B14: 411A11E9-VH2VL4 (Fab, V domains shown)
VH: EVQLVESGGGLVQPGGSLRLSCAASGFTFSDYYMAWVRQAPGKGLEWVASINYDGGDTYYRDSVKGRFTISRDNAKNSLYLQMNSLRAEDTAVYYCATEEDYDGSYVMDAWGQGTLVTVSS
VL: DIQMTQSPSSLSASVGDRVTITCKASQNINKELTWYQQKPGKAPKRLIYNTNILQTGIPSRFSGSGSGTEYTLTISSLQPEDFATYFCLQQSSLYTFGQGTKLEIK
notes: as for B10
Regarding B14, in the experiment with human CXCL13 [1], binding was put at a Kd of 0.634 nM, the koff amounted to 0.00105 s⁻¹ and the kon came to 1.66e+06 M⁻¹ s⁻¹. In addition, in the experiment with human CXCL13 [2], binding was characterised by a dissociation constant (Kd) of 0.931 nM, the koff amounted to 0.000887 s⁻¹ and the on-rate (kon) came out at 953000 M⁻¹ s⁻¹.
